Target: H4K20R recombinant nucleosomes containing FLAG-tagged H2A and H4K20R
Assay: pull-down

Binder | fold binding to H4K20R nucleosomes compared with WT nucleosomes | fold binding to H4K20R nucleosomes relative to WT nucleosomes
GFP-L(3)mbt (natural protein) MMALKMLYRGPSSRLENLIEKIQATKEITNNDMYSTHTSSSYSPSISDGTMTPNSHHLIGAPTAAGQEDHPTEGKINGGADGEDLPKPKRLPHFHHHHHHHYHHQQALKIANKLRKINKEAKMGATAGGGATGAASKFDKLTGEGIKSRGDGSYQCQFCEKTFPRLGYLKHHVQSHAEHLPFKCEYCSKLFKHKRSRDRHKKLHTNERNYKCPHCEAAFSRSDHLKIHMKTHDIQKPFQCSMCNRGYNTAAALTSHMQKHKKNAAILAAGGNPNALNYSPRSTGSASASVSSNGSLQKRRYALALASDSSPSRMDFPKRSRSNHVGGTTTTATPTPLLRCSYCPKVTEFSSLEQLNAHLQSVHEQPQTQAVKTPVQEGEGFQLSCEYCTMKFGNIAGLFQHMRSTHMDRLSSPNSYYEHFNRLATAGTFSPRLALDLPKIKPDLGSPERESRPAEDDLPTDLSNNKRRPLTPNPQAQTPLAPPSAPPGVFFCNQCNAGLPDFESFRNHLKSHIAEGMQLVCPHCGMSLPEQSEFERHVVGHFLITGSEFNCSSSCGKSFAKSEDLQQHLLSEHVLTLLKCSLCSELCESRMAMQLHLACAHSQETKLLRCSACLELFRSDAEFHVHVKTRHQLGGHPTLGATSSAPTNPLQCMFCRAVCSSELEMHFHLAAHARQFRCPSCPETFHVEFLLDRHMQSQHGGVKDKEANSPNMGSLYVNALLPPLAAAAAAAAATNNNSSIIDYNVAFKGLFGGASGGAGSGGGGAQSGGAPPSANKFYSPLQVDTNALKAQTSPHPALMYGLSQRYLMEMYAAKSTSPSGNEGVGNSQPPAPQATAPPPPPNASTATFSCGMCERQDLRSEAELHSHRKLAHNLKTGVSLRCAYCAGNFKSRAELEQHMKSCHNSTGKHKCLICDEVFPSPAILAEHKLQHSKVGQSGKCSHCGQPLEDVAAFRAHLSEHGSDGASLPLACICCRQTLHSEFELSLHAKFHTKSSSSGGSLQEPVCALCLEPLPDATEGPAKLCDKCCRKHNLNGKRGKHSEPATSLPAPPSAFVENRCNLCKMILPHAQKLQEHLVEHTFAGTEQRGFNCYICSAVFTAPGGLLNHMGEHGAHSRPYDCNLCPEKFFFRAELEHHQRGHELRPQARPPAAKVEVPSIRNTSPGQSPVRSPTIVKQELYETDTVESAGVEDEPENHPDEEEYIEVEQMPHETRPSGIGSQLERSTSSA | 1.8 fold | 
Set8 (enzyme) MIMVRRRQRPAKEAASSSSGGASSGSGIPVDQALPLNVAGNLLEDQYFASPKRKDCRLMKVTQNGQLPEATMMAHNKDNKAGRTIGVPLATRSQTRTIENFFKANAAAKDSQKTIHTEEQLNLGNQELKLDDEELNGQIKLDDEVLKLADKQINENLPFADEVDAKAEQKLMDEELQQVVEELLFDGSSRASSNSPFYQHDMDVMQEIQQTPEIPHIKKVTEPLEGLGSLADFQTHRSALRDSHSSTHSSSTDNIFLQEPVLTLDIDRTPTKASSIKINRSFELAGAVFSSPPSVLNACLNGRFNQIVSLNGQKEALDLPHFDLDQHDSSSCDSGVACGLTANTESPAGQPRRRKPATPHRILCPSPIKTALKVTGGICKVGSADPLSPRKSPRKLPTTTAAVAACKSRRRLNQPKPQAPYQPQLQKPPSQQQQQQQDDIVVVLDDDDDEGDDEDDVRALIKAAEERENQNKAPATANSNKAGMKTMLKPAPVKSKTKSKGPTKGQPPLPLAATNGNREMTDFFPVRRSVRKTKTAVKEEWMRGLEQAVLEERCDGLQVRHFMGKGRGVVADRPFKRNEFVVEYVGDLISIGEAAEREKRYALDENAGCYMYYFKHKSQQYCIDATVDTGKLGRLINHSRAGNLMTKVVLIKQRPHLVLLAKDDIEPGEELTYDYGDRSKESLLHHPWLAF |  | 14.5 fold

Reference: article PMC11216177
